Reference: paper PMC12416549 (2024)
Where a chain is given by its changes, count along the chain named. Numbers in names are those of the source.

Biological target: T1, TNFR1 (Homo sapiens, UniProt P19438)
T1 chain: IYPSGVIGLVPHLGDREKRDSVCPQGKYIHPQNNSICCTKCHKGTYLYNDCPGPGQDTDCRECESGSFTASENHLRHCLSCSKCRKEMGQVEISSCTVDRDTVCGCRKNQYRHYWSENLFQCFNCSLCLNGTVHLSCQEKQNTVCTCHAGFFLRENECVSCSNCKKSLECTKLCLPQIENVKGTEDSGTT
Assay: yeast display SC50

B1: E86N (designed binder)
chain: MTLQELLREEALRRAEAEAFRYALELLAEKFPEQKEYLLDLAEEIESQIRSLSGVDVEDVRKFLDKEWAWVKELLAEHPAELAEVNAARAARLAELRAEVEAKVAA
In the case of B1, the “apparent Kd (screen)” value is reported as 1.05 nM.

B2: K66F (designed binder)
chain: B1 chain with K66F, N86E
In the case of B2, the “apparent Kd (screen)” value is reported as 0.653 nM.

B3: E44I (designed binder)
chain: B1 chain with E44I, N86E
With B3 the “apparent Kd (screen)” value was 0.869 nM.

B4: A19V (designed binder)
chain: B1 chain with A19V, N86E
B4 was tested, and the “apparent Kd (screen)” value was 0.446 nM.

B5: A69R (designed binder)
chain: B1 chain with A69R, N86E
In the case of B5, the “apparent Kd (screen)” value is reported as 0.539 nM.

B6: E46N (designed binder)
chain: B1 chain with E46N, N86E
In the case of B6, the “apparent Kd (screen)” value is reported as 0.593 nM.

B7: S51Q (designed binder)
chain: B1 chain with S51Q, N86E
In the case of B7, the “apparent Kd (screen)” value is reported as 1.27 nM.

B8: R92V (designed binder)
chain: B1 chain with N86E, R92V
In the case of B8, the “apparent Kd (screen)” value is reported as 0.593 nM.

B9: L52V (designed binder)
chain: B1 chain with L52V, N86E
B9 was tested, and the “apparent Kd (screen)” value was 0.49 nM.

B10: L93C (designed binder)
chain: B1 chain with N86E, L93C
B10 was tested, and the “apparent Kd (screen)” value was 0.653 nM.

B11: I49L (designed binder)
chain: B1 chain with I49L, N86E
With B11 the “apparent Kd (screen)” value was 0.539 nM.

B12: L64Q (designed binder)
chain: B1 chain with L64Q, N86E
In the case of B12, the “apparent Kd (screen)” value is reported as 0.79 nM.

B13: A90E (designed binder)
chain: B1 chain with N86E, A90E
For B13, the “apparent Kd (screen)” value was 0.49 nM.

B14: M1M (designed binder)
chain: B1 chain with N86E
With B14 the “apparent Kd (screen)” value was 0.49 nM.

B15: W68Y (designed binder)
chain: B1 chain with W68Y, N86E
In the case of B15, the “apparent Kd (screen)” value is reported as 0.49 nM.

B16: Q4D (designed binder)
chain: B1 chain with Q4D, N86E
For B16, the “apparent Kd (screen)” value was 0.539 nM.

B17: Q34Y (designed binder)
chain: B1 chain with Q34Y, N86E
With B17 the “apparent Kd (screen)” value was 0.539 nM.

B18: A42E (designed binder)
chain: B1 chain with A42E, N86E
In the case of B18, the “apparent Kd (screen)” value is reported as 0.956 nM.

B19: R13A (designed binder)
chain: B1 chain with R13A, N86E
For B19, the “apparent Kd (screen)” value was 0.368 nM.

B20: Q4Y (designed binder)
chain: B1 chain with Q4Y, N86E
With B20 the “apparent Kd (screen)” value was 0.49 nM.

B21: A11Y (designed binder)
chain: B1 chain with A11Y, N86E
B21 was tested, and the “apparent Kd (screen)” value was 0.49 nM.

B22: F20P (designed binder)
chain: B1 chain with F20P, N86E
With B22 the “apparent Kd (screen)” value was 7.07 nM.

B23: L26P (designed binder)
chain: B1 chain with L26P, N86E
In the case of B23, the “apparent Kd (screen)” value is reported as 13.8 nM.

B24: E67S (designed binder)
chain: B1 chain with E67S, N86E
For B24, the “apparent Kd (screen)” value was 6.43 nM.

B25: W68N (designed binder)
chain: B1 chain with W68N, N86E
In the case of B25, the “apparent Kd (screen)” value is reported as 12.5 nM.

B26: L3K (designed binder)
chain: B1 chain with L3K, N86E
B26 was tested, and the “apparent Kd (screen)” value was 2.48 nM.

B27: Q4E (designed binder)
chain: B1 chain with Q4E, N86E
In the case of B27, the “apparent Kd (screen)” value is reported as 0.79 nM.

B28: E10Q (designed binder)
chain: B1 chain with E10Q, N86E
With B28 the “apparent Kd (screen)” value was 13.8 nM.

B29: E44Y (designed binder)
chain: B1 chain with E44Y, N86E
For B29, the “apparent Kd (screen)” value was 7.78 nM.

B30: L38D (designed binder)
chain: B1 chain with L38D, N86E
B30 was tested, and the “apparent Kd (screen)” value was 11.4 nM.

B31: L7V (designed binder)
chain: B1 chain with L7V, N86E
For B31, the “apparent Kd (screen)” value was 2.25 nM.

B32: A23I (designed binder)
chain: B1 chain with A23I, N86E
B32 was tested, and the “apparent Kd (screen)” value was 0.653 nM.

B33: L39G (designed binder)
chain: B1 chain with L39G, N86E
In the case of B33, the “apparent Kd (screen)” value is reported as 3 nM.

B34: L27P (designed binder)
chain: B1 chain with L27P, N86E
B34 was tested, and the “apparent Kd (screen)” value was 7.78 nM.

B35: A91S (designed binder)
chain: B1 chain with N86E, A91S
With B35 the “apparent Kd (screen)” value was 0.79 nM.

B36: L82H (designed binder)
chain: B1 chain with L82H, N86E
In the case of B36, the “apparent Kd (screen)” value is reported as 0.593 nM.

B37: L82C (designed binder)
chain: B1 chain with L82C, N86E
For B37, the “apparent Kd (screen)” value was 0.593 nM.

B38: L93E (designed binder)
chain: B1 chain with N86E, L93E
For B38, the “apparent Kd (screen)” value was 0.869 nM.

B39: E84D (designed binder)
chain: B1 chain with E84D, N86E
B39 was tested, and the “apparent Kd (screen)” value was 0.49 nM.

B40: E95I (designed binder)
chain: B1 chain with N86E, E95I
For B40, the “apparent Kd (screen)” value was 0.446 nM.

B41: E18V (designed binder)
chain: B1 chain with E18V, N86E
For B41, the “apparent Kd (screen)” value was 0.79 nM.

B42: R97P (designed binder)
chain: B1 chain with N86E, R97P
For B42, the “apparent Kd (screen)” value was 0.869 nM.

B43: E46G (designed binder)
chain: B1 chain with E46G, N86E
With B43 the “apparent Kd (screen)” value was 0.49 nM.

B44: M1Q (designed binder)
chain: B1 chain with M1Q, N86E
With B44 the “apparent Kd (screen)” value was 0.593 nM.

B45: Y22R (designed binder)
chain: B1 chain with Y22R, N86E
With B45 the “apparent Kd (screen)” value was 0.593 nM.

B46: A102D (designed binder)
chain: B1 chain with N86E, A102D
For B46, the “apparent Kd (screen)” value was 0.539 nM.

B47: L27I (designed binder)
chain: B1 chain with L27I, N86E
For B47, the “apparent Kd (screen)” value was 1.27 nM.

B48: T2V (designed binder)
chain: B1 chain with T2V, N86E
In the case of B48, the “apparent Kd (screen)” value is reported as 0.593 nM.

B49: E101Q (designed binder)
chain: B1 chain with N86E, E101Q
For B49, the “apparent Kd (screen)” value was 0.718 nM.

B50: V100W (designed binder)
chain: B1 chain with N86E, V100W
For B50, the “apparent Kd (screen)” value was 0.539 nM.

B51: D40C (designed binder)
chain: B1 chain with D40C, N86E
With B51 the “apparent Kd (screen)” value was 0.79 nM.

B52: E25P (designed binder)
chain: B1 chain with E25P, N86E
B52 was tested, and the “apparent Kd (screen)” value was 2.25 nM.

B53: E18W (designed binder)
chain: B1 chain with E18W, N86E
With B53 the “apparent Kd (screen)” value was 0.446 nM.

B54: A87W (designed binder)
chain: B1 chain with N86E, A87W
In the case of B54, the “apparent Kd (screen)” value is reported as 0.653 nM.

B55: L74F (designed binder)
chain: B1 chain with L74F, N86E
For B55, the “apparent Kd (screen)” value was 0.79 nM.

B56: K30H (designed binder)
chain: B1 chain with K30H, N86E
In the case of B56, the “apparent Kd (screen)” value is reported as 0.49 nM.

B57: E101L (designed binder)
chain: B1 chain with N86E, E101L
B57 was tested, and the “apparent Kd (screen)” value was 0.593 nM.

B58: L96Y (designed binder)
chain: B1 chain with N86E, L96Y
For B58, the “apparent Kd (screen)” value was 0.49 nM.

B59: E81R (designed binder)
chain: B1 chain with E81R, N86E
In the case of B59, the “apparent Kd (screen)” value is reported as 0.539 nM.
